Experimental data taken from patent US20140335077A1, “Compositions and Methods for the Treatment of Cancer Using IGF-IR Antagonists and MAPK/ERK Inhibitors” (priority 2013, published 2014).

How the values were obtained:
Format in all cases: cell-based
[1] = system: SKMel5; test: PrestoBlue cell viability, anti-IGF-1R antibody with U0126, SKMel5 (melanoma); conditions: 48 h
Description: (§1) Cells were incubated in 96 well tissue culture plates and cell viability was measured by PrestoBlue cell viability assay (Invitrogen, CA, USA) according to manufacturer's instructions. Fluorescence was measured with excitation at 560 nm and emission at 590 nm. Cell number was calculated from standard curves of fluorescence measurements from known numbers of cells. Triplicate cultures were performed on all experiments.
(§2) The effects of anti-IGF-1R antibodies/MEK inhibitor combination treatment on viability of different types of tumor cells were investigated using PrestoBlue cell viability assay (Invitrogen, CA, USA) according to manufacturer's instructions. (Table 3).
(§3) Cells were incubated in serum free medium for 12 h followed by pretreatment for 60 min without or with 0.5, 1, 3 or 5 μM of the ERK inhibitor U0126, and then treated without or with 100 ng/ml anti-IGF-1R antibodies (Figitumumab or αIR-3 (Calbiochem, US). Cells were incubated in 96 well tissue culture plates for 48 hours and cell viability was measured by PrestoBlue cell viability assay. Fluorescence was measured with excitation at 560 nm and emission at 590 nm. Cell number was calculated from standard curves of fluorescence measurements from known numbers of cells. Triplicate cultures were performed on all experiments. The inhibition induced by anti-IGF-1R antibodies treated cells was calculated as percentage of untreated cells.

[2] = system: HEPG2; test: PrestoBlue cell viability, anti-IGF-1R antibody with U0126, HEPG2 (hepatic carcinoma); conditions: 48 h
Description: as §1, §2, §3

[3] = system: A549; test: PrestoBlue cell viability, anti-IGF-1R antibody with U0126, A549 (lung cancer); conditions: 48 h
Description: as §1, §2, §3

[4] = system: Ewing's sarcoma (ES) cell lines: SKES, RDES, CADO, A673 and SKNMC; test: Cell viability of Ewing's sarcoma cell lines (PrestoBlue); conditions: 48 h
Description: (§4) FIG. 1A-FIG. 1C. Effects of Figitumumab (CP-751871 (CP)) treatment on cell viability in ES cell lines. (A) Cell lysates were prepared from the indicated cell lines and analyzed by WB for total IGF-1R expression and GAPDH as a loading control. […] Data correspond to the mean±SEM from three independent experiments. […] (C) Indicated cells were treated without and with 100 ng/ml CP for 48 h in the absence (SFM) or presence of 10% fetal bovine serum (Serum) and cell viability assayed by PrestoBlue reagent. […] Data correspond to the mean±SEM from three independent experiments. Statistical analysis compared with SKBR3: *P<0.05, **P<0.01, **P<0.001.
FIG. 6A-FIG. 6C. […] Cell lysates were prepared from the same samples and analyzed by WB for β-arrestin1 (βarr1) and GAPDH as a loading control. Signals were quantified by densitometry, normalized to GAPDH and presented as a percentage of the doxycycline untreated cells. […] During the experiment, cell lysates were collected at 10 min after CP stimulation and analyzed by WB for P-ERK and total ERK as a loading control and at 12 h after CP stimulation and analyzed by WB for IGF-1R and GAPDH as a loading control. Signals were quantified by densitometry, normalized to the loading control and presented as a percentage of the CP untreated cells. […]

[5] = system: SKBR3 and IGF-1R knockout MEF cells (R−); test: Cell viability of negative control cells (PrestoBlue); conditions: 100 ng/ml, 48 h
Description: as §4, §1
IGF-1R expression was investigated in a panel of validated Ewing's sarcoma (ES) cell lines: SKES, RDES, CADO, A673 and SKNMC. Breast cancer cell line SKBR3, expressing low IGF-1R levels and IGF-1R knockout MEF cells (R−) were used as negative controls. […]

[6] = system: IGF-1R, AKT and ERK phosphorylation; test: IGF-1R signaling activation in ES cell lines (WB for P-IGF-1R, P-AKT, P-ERK)
[7] = U0126 0 μM (60 min pretreatment)
[8] = U0126 0.5 μM (60 min pretreatment)
[9] = U0126 1 μM (60 min pretreatment)
[10] = U0126 3 μM (60 min pretreatment)
[11] = U0126 5 μM (60 min pretreatment)
[12] = serum starved ES cells, stimulation up to 60 min

B1: CP-751,871: anti-IGF-1R antibody figitumumab (Pfizer), IGF-1R antagonist (antibody, chains of the INN, looked up)
heavy: EVQLLESGGGLVQPGGSLRLSCTASGFTFSSYAMNWVRQAPGKGLEWVSAISGSGGTTFYADSVKGRFTISRDNSRTTLYLQMNSLRAEDTAVYYCAKDLGWSDSYYYYYGMDVWGQGTTVTVSSASTKGPSVFPLAPCSRSTSESTAALGCLVKDYFPEPVTVSWNSGALTSGVHTFPAVLQSSGLYSLSSVVTVPSSNFGTQTYTCNVDHKPSNTKVDKTVERKCCVECPPCPAPPVAGPSVFLFPPKPKDTLMISRTPEVTCVVVDVSHEDPEVQFNWYVDGVEVHNAKTKPREEQFNSTFRVVSVLTVVHQDWLNGKEYKCKVSNKGLPAPIEKTISKTKGQPREPQVYTLPPSREEMTKNQVSLTCLVKGFYPSDIAVEWESNGQPENNYKTTPPMLDSDGSFFLYSKLTVDKSRWQQGNVFSCSVMHEALHNHYTQKSLSLSPG
light: DIQMTQFPSSLSASVGDRVTITCRASQGIRNDLGWYQQKPGKAPKRLIYAASRLHRGVPSRFSGSGSGTEFTLTISSLQPEDFATYYCLQHNSYPCSFGQGTKLEIKRTVAAPSVFIFPPSDEQLKSGTASVVCLLNNFYPREAKVQWKVDNALQSGNSQESVTEQDSKDSTYSLSSTLTLSKADYEKHKVYACEVTHQGLSSPVTKSFNRGEC
[1]; [7]
  Percentage inhibition of antibody treated cells (100 ng/ml): 22%
[1]; [8]
  Percentage inhibition of antibody treated cells (100 ng/ml): 30%
[1]; [9]
  Percentage inhibition of antibody treated cells (100 ng/ml): 35%
[1]; [10]
  Percentage inhibition of antibody treated cells (100 ng/ml): 39%
[1]; [11]
  Percentage inhibition of antibody treated cells (100 ng/ml): 42%
[2]; [7]
  Percentage inhibition of antibody treated cells (100 ng/ml): 7%
[2]; [8]
  Percentage inhibition of antibody treated cells (100 ng/ml): 11%
[2]; [9]
  Percentage inhibition of antibody treated cells (100 ng/ml): 22%
[2]; [10]
  Percentage inhibition of antibody treated cells (100 ng/ml): 27%
[2]; [11]
  Percentage inhibition of antibody treated cells (100 ng/ml): 37%
[3]; [7]
  Percentage inhibition of antibody treated cells (100 ng/ml): 40%
[3]; [8]
  Percentage inhibition of antibody treated cells (100 ng/ml): 56%
[3]; [9]
  Percentage inhibition of antibody treated cells (100 ng/ml): 77%
[3]; [10]
  Percentage inhibition of antibody treated cells (100 ng/ml): 88%
[3]; [11]
  Percentage inhibition of antibody treated cells (100 ng/ml): 98%
[4]; 100 ng/ml, presence or absence of serum, all ES cell lines
  Cell viability (cell number) of ES cell lines: decreased cell number
[4]; ES cell lines, U0126 pre-treatment 60 min, 100 ng/ml CP
  Sensitivity (cell viability) of combined treatment with MEK inhibitor U0126 versus CP-751,871 alone: increased sensitivity
[5]
  Cell viability of negative control cells: unaffected
[6]; [12]
  AKT phosphorylation: undetectable
  IGF-1R phosphorylation: undetectable
[6]; serum starved cells, up to 60 min, all ES cell lines
  ERK phosphorylation: clear ERK phosphorylation signals
